Among the data in publication PMC10718286 are kcat and kcat/Km values, retold here.

In the series the test system is C[S+](CC[C@H](N)C(=O)O)C[C@H]1O[C@@H](n2cnc3c(N)ncnc32)[C@H](O)[C@@H]1O. The series can be described thus: purified protein. The following applies: catalytic SET domain; varied: cofactor.

In the case of “SETDB1 (full-length, SETDB1-FL) (Homo sapiens)”, the kcat – broadly, the number of substrate molecules converted per active site and unit of time at saturation – stood at 8.06e-05 s⁻¹; the specificity constant (kcat/Km) – broadly, the second-order rate constant that governs catalysis at low substrate concentration – was determined as 88.9 M⁻¹ s⁻¹.
